Here are results for two molecules from paper PMC8324831, “A synthetic nanobody targeting RBD protects hamsters from SARS-CoV-2 infection” (Nature Communications, 2021).

Assay [1] addresses SARS-CoV-2 S-RBD for crystallization (residues 330-531, Avi-tag and His-tag removed by 3C protease) (SARS-CoV-2, Wuhan-Hu-1 reference …, UniProt P0DTC2). Kind of assay: crystal structure. To be noted: both partners purified.
The target in assay [2] is SARS-CoV-2 S-RBD with Avi-tag and deca-His tag (residues 330-531) (SARS-CoV-2, UniProt P0DTC2, biotin on the Avi tag (BirA) where immobilised on streptavidin sensors or used in ELISA and FSEC). The assay can be described thus: ELISA; Myc-tagged sybody from lysate captured by anti-Myc antibody on protein A-coated plate; 50 nM biotinylated RBD added; streptavidin-HRP; room temperature, TBST. To be noted: one partner purified.

The target of assay [3] is SARS-CoV-2 S-RBD with Avi-tag and deca-His tag (residues 330-531) (SARS-CoV-2, UniProt P0DTC2 330-531). Kind of assay: cell-based or functional assay.

B1: sybody SR4 (VHH)
VHH: QVQLVESGGGLVQAGGSLRLSCAASGFPVYSWNMWWYRQAPGKEREWVAAIESHGDSTRYADSVKGRFTISRDNAKNTVYLQMNSLKPEDTAVYYCYVWVGHTYYGQGTQVTVS
For B1, the binding result in assay [1] and in assay [2] was “binds” throughout.

B2: Fc-MR3 (Fc fusion)
chain: GSSSQVQLVESGGGLVQAGGSLRLSCAASGFPVNAHFMYWYRQAPGKEREWVAAIYSYGRTLYADSVKGRFTISRDNAKNTVYLQMNSLKPEDTAVYYCNVKDYGAASWEYDYWGQGTQVTVSERKCCVECPPCPAPPVAGPSVFLFPPKPKDTLMISRTPEVTCVVVDVSHEDPEVQFNWYVDGVEVHNAKTKPREEQFNSTFRVVSVLTVVHQDWLNGKEYKCKVSNKGLPAPIEKTISKTKGQPREPQVYTLPPSREEMTKNQVSLTCLVKGFYPSDIAVEWESNGQPENNYKTTPPMLDSDGSFFLYSKLTVDKSRWQQGNVFSCSVMHEALHNHYTQKSLSLSPGK
Take B2: the “IC50 of neutralisation of SARS-CoV-2 S pseudovirus on VeroE6-hACE2 cells (blocks RBD-ACE2)” value in assay [3] turned out to be 0.042 µg/mL.
